Patent US20110008302

T1: H3K4(me3) peptide ART-K(me3)-QTARKST
T1 chain: ARTKQTARKST

T2: H3K36(me2) peptide ATGGV-K(me2)-KPHRY
T2 chain: ATGGVKKPHRY


Tests used:
[1] = target: T1, H3K4(me3) peptide ART-K(me3)-QTARKST
[2] = target: T2, H3K36(me2) peptide ATGGV-K(me2)-KPHRY

| Protein | fluorescence coupled demethylation assay [1] | fluorescence coupled demethylation assay [2] | specific activity (ratio H3K36me2 versus H3K4me3 peptide) [2] |
| --- | --- | --- | --- |
| bacterially expressed mouse Ndy1 fragment containing the JmjC, CXXC and PHD domains (aa 171-707) (protein) MWPQHLKEKQTEATNALAEMKYPKVKKYCLMSVKGCFTDFHIDFGGTSVWYHVFRGGKIFWLIPPTLHNLALYEEWVLSGKQSDIFLGDRVERCQRIELKQGYTFFIPSGWIHAVYTPVDSLVFGGNILHSFNVPMQLRIYEIEDRTRVQPKFRYPFYYEMCWYVLERYVYCVTQRSYLTQEYQRELMLIDAPRKTSVDGFSSDSWLDMEEESCEQQPQEEEEEEEDKEEEGDGADKTPKPPTDDPTSPTSTPPEDQDSTGKKPKAPAIRFLKRTLSNESEESVKSTSMPTDDPKTPTGSPATEVSTKWTHLTEFELKGLKALVEKLESLPENKKCVPEGIEDPQALLEGVKNVLKEHVDDDPTLAITGVPVVSWPKKTAKNRVVGRPKGKLGPASAVKLAANRTTAGARRRRTRCRKCEACLRTECGECHFCKDMKKFGGPGRMKQSCIMRQCIAPVLPHTAVCLVCGEAGKEDTVEEEEGKFNLMLMECSICNEIIHPGCLKIKESEGVVNDELPNCWECPKCNHAGKTGKQKRG | shown to demethylate both H3K36me2 and H3K4me3 peptides, with high and low efficiencies respectively | shown to demethylate both H3K36me2 and H3K4me3 peptides, with high and low efficiencies respectively | about three times higher specific activity towards the H3K36me2 versus the H3K4me3 peptide |
| 171-707 Ndy1 fragment containing the Y221A mutation (protein) MWPQHLKEKQTEATNALAEMKYPKVKKYCLMSVKGCFTDFHIDFGGTSVWAHVFRGGKIFWLIPPTLHNLALYEEWVLSGKQSDIFLGDRVERCQRIELKQGYTFFIPSGWIHAVYTPVDSLVFGGNILHSFNVPMQLRIYEIEDRTRVQPKFRYPFYYEMCWYVLERYVYCVTQRSYLTQEYQRELMLIDAPRKTSVDGFSSDSWLDMEEESCEQQPQEEEEEEEDKEEEGDGADKTPKPPTDDPTSPTSTPPEDQDSTGKKPKAPAIRFLKRTLSNESEESVKSTSMPTDDPKTPTGSPATEVSTKWTHLTEFELKGLKALVEKLESLPENKKCVPEGIEDPQALLEGVKNVLKEHVDDDPTLAITGVPVVSWPKKTAKNRVVGRPKGKLGPASAVKLAANRTTAGARRRRTRCRKCEACLRTECGECHFCKDMKKFGGPGRMKQSCIMRQCIAPVLPHTAVCLVCGEAGKEDTVEEEEGKFNLMLMECSICNEIIHPGCLKIKESEGVVNDELPNCWECPKCNHAGKTGKQKRG | failed to demethylate either of the peptide substrates | failed to demethylate either of the peptide substrates | – |
